For this assay, the target named is Avi-barnase (G34C/H102A), biotinylated, labeled with Alexa 488. Nature of the assay: FRET or BRET; single-molecule FRET; donor-labeled barnase immobilised on PEG-coated glass via biotin-NeutrAvidin, acceptor-labeled barstar (20 nM) in solution; 10 mM Tris pH 7, 0 mM NaCl and higher (printed kA at 0 mM NaCl); 22 °C; illumination 0.3 μW; two-state maximum likelihood analysis with correction for acceptor photobleaching.

The substance “Cys-barstar, labeled with Alexa 647 (natural protein)” showed a kon of 1e+08 M⁻¹ s⁻¹.

As usually defined, the kon is the second-order rate constant of association. A lower kon goes with slower complex formation.

(Values after PMC6226484.)
